# Experimental data: patent US6387643B1, “Human platelet heparanase polypeptides, polynucleotide molecules that encode them, and methods for the identification of compounds that alter heparanase activity” (Pharmacia and Upjohn Company, priority 1998, dated 2002)
# B1: purified heparanase: Human platelet heparanase: non-covalently associated 56 kDa (residues 145-530) and 8 kDa (residues 23-96) polypeptides of SEQ ID NO:2 (protein)
# chain: QDVVDLDFFTQEPLHLVSPSFLSVTIDANLATDPRFLILLGSPKLRTLARGLSPAYLRFGGTKTDFLIFDPKKESTFEERSYWQSQVNQDICKYGSIPPDVEEKLRLEWPYQEQLLLREHYQKKFKNSTYSRSSVDVLYTFANCSGLDLIFGLNALLRTADLQWNSSNAQLLLDYCSSKGYNISWELGNEPNSFLKKADIFINGSQLGEDFIQLHKLLRKSTFKNAKLYGPDVGQPRRKTAKMLKSFLKAGGEVIDSVTWHHYYLNGRTATKEDFLNPDVLDIFISSVQKVFQVVESTRPGKKVWLGETSSAYGGGAPLLSDTFAAGFMWLDKLGLSARMGIEVVMRQVFFGAGNYHLVDENFDPLPDYWLSLLFKKLVGTKVLMASVQGSKRRKLRVYLHCTNTDNPRYKEGDLTLYAINLHNVTKYLRLPYPFSNKQVDKYLLRPLGPHGLLSKSVQLNGLTLKMVDDQTLPPLMEKPLRPGSSLGLPAFSYSFFVIRNAKVAACI
# modifications: two chains: residues 145-530 and 23-96
# B2: Pro-heparanase: 508 residue protein, amino acid residues 23 to 530 of SEQ ID NO: 2, precursor of heparanase (protein)
# chain: B1 chain
# Key:
# platelets = settings: 1 U/ml thrombin; cited from earlier work
# ^35S-HSPG (>70 K) = test: Heparanase activity, Conventional Assay (degradation of 35S-HSPG, 30,000 MW cut-off filter); type: biochemical, mice
# Protocol: The pH optimum of the purified heparanase was determined by conducting the assay described in Example 2 (the Conventional Assay) in the pH range of 3.5 to 8.0, using a citrate buffer (pH 3.5-6.0), citrate-phosphate buffer (pH 6.5-7.0), and phosphate buffer (pH 7.5-8). Heparanase was active between pH 5.0 and 8.0, with the optimum pH at 5.8.
# ^35S-HSPG (>70 K) was prepared from mice bearing a basement membrane tumor that overproduces HSPG (EHS tumor), using modifications of the method of Ledbetter et al. (Biochemistry 26: 988-995 (1987)). Briefly, the radiolabeled HSPG was prepared by injecting C57BL mice bearing the EHS tumor with sodium [^35S] sulfate (0.5 mCi/mouse) 18 h before harvesting the tumor. […]
# ^35S-HSPG was isolated from the Buffer B supernatant by sequential chromatography on anion exchange and gel filtration columns. […] Fractions were sampled for radioactivity, and those containing the ^35SO4 label that eluted from the DEAE-Sephacel between 0.4 M and 0.8 M NaCl were pooled. […] Fractions were sampled for radioactivity, and those containing the ^35SO4 label that elutes with a molecular weight 70 kDa were pooled. […]
# Heparanase activity from platelets or column fractions was detected by its ability to digest the 70 kDa ^35S-HSPG to produce lower molecular weight products. not retained by a 30,000 MW cut-off membrane. […]
molecule,measurement,setting,value
thrombin,heparanase activity released from platelets,platelets,100%
B1,optimum pH of heparanase activity,"^35S-HSPG (>70 K); pH range 3.5 to 8.0, citrate, citrate-phosphate and phosphate buffers",5.8
B2,catalytic activity,^35S-HSPG (>70 K); before cleavage of the Glu96-Ser97 and Gln144-Lys145 bonds,not catalytically active
